Target: T1, CBP-PHYA (recombinant full-length PHYA) (Arabidopsis, UniProt P14712 1-1122)
T1 construct: phytochrome A (PHYA), Arabidopsis, At1g09570, full length; coding region cloned into pCAL-n in frame with an upstream CBP tag; Made in E. coli; no chromophore is mentioned; also called CBP-PHYA-F; source: E. coli (BL21), purified (Calmodulin Resin)
T1 sequence (looked up): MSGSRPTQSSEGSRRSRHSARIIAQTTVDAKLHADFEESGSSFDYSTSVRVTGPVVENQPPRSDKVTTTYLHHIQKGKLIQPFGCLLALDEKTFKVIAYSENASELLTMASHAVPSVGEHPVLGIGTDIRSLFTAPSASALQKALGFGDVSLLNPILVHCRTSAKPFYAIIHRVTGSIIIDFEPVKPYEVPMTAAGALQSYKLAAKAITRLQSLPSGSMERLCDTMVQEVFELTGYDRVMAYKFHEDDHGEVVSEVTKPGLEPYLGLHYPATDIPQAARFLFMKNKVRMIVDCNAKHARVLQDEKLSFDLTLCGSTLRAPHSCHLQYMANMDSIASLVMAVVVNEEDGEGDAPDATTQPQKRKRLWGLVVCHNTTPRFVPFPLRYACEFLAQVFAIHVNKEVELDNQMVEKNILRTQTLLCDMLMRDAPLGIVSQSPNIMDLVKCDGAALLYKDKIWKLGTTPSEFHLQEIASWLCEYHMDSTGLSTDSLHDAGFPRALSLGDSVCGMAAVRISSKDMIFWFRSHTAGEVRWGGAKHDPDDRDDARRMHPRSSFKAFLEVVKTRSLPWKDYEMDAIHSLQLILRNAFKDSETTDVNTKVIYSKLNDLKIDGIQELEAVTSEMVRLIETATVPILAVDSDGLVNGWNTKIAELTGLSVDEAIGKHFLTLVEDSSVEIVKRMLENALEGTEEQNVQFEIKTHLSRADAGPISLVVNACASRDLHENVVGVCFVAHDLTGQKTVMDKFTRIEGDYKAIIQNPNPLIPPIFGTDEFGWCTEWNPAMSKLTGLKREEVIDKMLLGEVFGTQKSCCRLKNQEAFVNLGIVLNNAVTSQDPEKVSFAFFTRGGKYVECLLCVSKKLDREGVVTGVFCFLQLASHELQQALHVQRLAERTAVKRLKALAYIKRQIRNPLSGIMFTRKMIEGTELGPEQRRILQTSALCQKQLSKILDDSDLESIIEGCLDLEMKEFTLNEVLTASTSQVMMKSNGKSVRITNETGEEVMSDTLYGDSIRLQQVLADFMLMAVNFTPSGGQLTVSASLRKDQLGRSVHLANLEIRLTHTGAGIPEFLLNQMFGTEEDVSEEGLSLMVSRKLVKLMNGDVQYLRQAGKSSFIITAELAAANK
Assay: pull-down; 1 μg GST-tagged FIN219 protein on 10 μl GST beads overnight at 4°C in 1 ml 1X PBS, then 1 μg CBP-PHYA for 2 h at 4°C; eight washes with 1X PBS; blots with anti-GST and anti-phyA
Details: both partners purified

binding result: binds
B1: GST-FIN219-FL (enzyme, Arabidopsis, UniProt Q9SKE2 1-575, looked up)
chain: MLEKVETFDMNRVIDEFDEMTRNAHQVQKQTLKEILLKNQSAIYLQNCGLNGNATDPEEAFKSMVPLVTDVELEPYIKRMVDGDTSPILTGHPVPAISLSSGTSQGRPKFIPFTDELMENTLQLFRTAFAFRNRDFPIDDNGKALQFIFSSKQYISTGGVPVGTATTNVYRNPNFKAGMKSITSPSCSPDEVIFSPDVHQALYCHLLSGILFRDQVQYVFAVFAHGLVHAFRTFEQVWEEIVTDIKDGVLSNRITVPSVRTAMSKLLTPNPELAETIRTKCMSLSNWYGLIPALFPNAKYVYGIMTGSMEPYVPKLRHYAGDLPLVSHDYGSSEGWIAANVTPRLSPEEATFAVIPNLGYFEFLPVSETGEGEEKPVGLTQVKIGEEYEVVITNYAGLYRYRLGDVVKVIGFYNNTPQLKFICRRNLILSINIDKNTERDLQLSVESAAKRLSEEKIEVIDFSSYIDVSTDPGHYAIFWEISGETNEDVLQDCCNCLDRAFIDAGYVSSRKCKTIGALELRVVAKGTFRKIQEHFLGLGSSAGQFKMPRCVKPSNAKVLQILCENVVSSYFSTAF
notes: FIN219/JAR1, Arabidopsis, At2g46370, full length; also called full-length FIN219; source: E. coli, purified (Glutathione Sepharose 4B)

— paper PMC10237651, “Arabidopsis FIN219/JAR1 interacts with phytochrome A under far-red light and jasmonates in regulating hypocotyl elongation via a functional demand manner” (PLOS Genetics, 2023)
